Measured values from PMC10675845.

What was measured:
Experiment in all cases: single-cell, single-molecule pull-down
[1] = target: GFP::CDC-42 (C. elegans) (UniProt Q05062)
[2] = target: GFP::CDC-42(S71E) (C. elegans) (UniProt Q05062)
[3] = target: GFP::CDC-42(S71A) (C. elegans) (UniProt Q05062)

## HaloTag::aPKC (from UniProt Q19266 1-597) (enzyme)
[1]
  koff: 0.057 s⁻¹
[2]
  koff: 0.099 s⁻¹
[3]
  koff: 0.057 s⁻¹
